{"source": "patent US20260250410A1", "about": "(SICHUAN HUIYU PHARMACEUTICAL, published 2026)", "binders": {"B1": {"name": "12E6 (antibody, V domains shown)", "VH": "EVQLKESGPGILQPSQTLSLTCSFSGFSLSTSGMGVGWIRQPSGKGLEWLAHIWWDDVKLYNPALKSRLTISKETSNNQVFLKIASVDAADTATYYCARIDHGYGSNYWDFDVWGAGTTVTVSS", "VL": "DIVMTQAAPSVPVTPGGSVSISCRSTKSLLHSDGKTYLYWFLQRPGQSPQLLIYRMSNLASGVPDRFSGSGSGTAFTLRISRVEAEDVGVYYCMQHLEYPFTFGSGTKLEIK", "notes": "murine hybridoma mAb"}, "B2": {"name": "8E5 (antibody, V domains shown)", "VH": "EVQLKESGPELKKPGETVKISCKASGYTLTDFSMHWLKQAPGKGLKWMGWINTETGAPTYADDFKGRFALSLDTSANTAYLQINNLKNEDTATYFCSRGRDYDPHFDYWGQGTTVTVSS", "VL": "EIVLTQSPATLSVTPGDRVSLSCRASQSISDFLHWYQQRSHESPRLLIKYASQSISGIPSRFGGSGSGSDFTLNINTVEPEDVGMYYCQSAHSFPYTFGGGTKLEIK", "notes": "murine hybridoma mAb; also called 8ES"}, "B3": {"name": "G10F6 (antibody, V domains shown)", "VH": "EVKLVESGPGILQPSQTLSLTCSFSGFSLSTSGMGVSWVRQPSGKGLEWLAHIYWDDDKRYNPSLKGRLTISKDTPRNQVFLEITSVDTTDTATYYCARVPGNWDEDAMDYWGQGTTVTVSS", "VL": "DIQMTQSPLSLPVSLGDQASISCRSSQNIVHTNGNTYLEWYLQKVGQSPKLLIYKVSNRFSGVPDRFSGSGSGTDFTLKISRVEAEDLGVYYCFQGSHVPYTFGGGTKLEIK", "notes": "murine hybridoma mAb"}, "B4": {"name": "3C11 (antibody, V domains shown)", "VH": "EVQLQQSGTVLARPGASVKMSCKASGYNFISYWLHWIKQRPGQGLEWIGGIYPGNTDTTYNQKFKGKAKVTAVTSATTAYMELSSLTNEDSAVYYCIRYDYDRGMDYWGQGTTVTVSS", "VL": "DIQMTQSPSSFSVSLGDRVTITCRASEDIYYRLAWYQQKPGNAPRLLISGATALETGVPSRFSGSGSGKDYTLSITSLQTEDVATYYCQHYWNIPWTFGGGTKLEIK", "notes": "murine hybridoma mAb"}, "B5": {"name": "6A7 (antibody, V domains shown)", "VH": "EVQLKESGAELVRPGASVKVSCKASGYSFTSYWMNWVKQRPGQGLEWIGMIHPSDSETKLNQKFRDRASLTVDKSSSTAYMQLSSPTSEDSAVYYCTINYESFYYAMDYWGQGTTVTVSS", "VL": "DIVMTQSPASLAVSLGQRATISCRASKSVSTSGYSYMHWYQQKPGQPPKLLLYLASNLESGVPARFSGSGSGADFTLNIHPVEEEDAATYYCLHSRELPYTFGGGTKLEIK", "notes": "murine hybridoma mAb"}, "B6": {"name": "3B12H5 (antibody, V domains shown)", "VH": "EVQLQQSGTVLARPGASVKMSCKASGYSFTIYWVHWVKQRPGQGLEWIGAVYPGNDDTSYNQNFKGKAKLTAVTSATTAYMELSSLTIDDSAVYYCTRHTYDEVFDYWGQGTTVTVSS", "VL": "B4 VL with Q3V, F11L, R24K, A51G, A53N, T56A, V58I, T85I, I94T", "notes": "murine hybridoma mAb; also called 3B12HS"}, "B7": {"name": "5B8 (antibody, V domains shown)", "VH": "EVQLKESGGGLVQPGGSLRISCATSGLTFTHYHMSWVRQPPGKAPEWLAIIRNKAYGYTTDYSASVRGRFTISRDDSQSILYLQMNTLRAEDSATYYCVREGGYGYDGTFAYWGQGTTVTVSS", "VL": "not shown", "notes": "murine hybridoma mAb"}, "B8": {"name": "8C9 (antibody, V domains shown)", "VH": "B7 VH with A90P", "VL": "not shown", "notes": "murine hybridoma mAb"}, "B9": {"name": "3F1A11 (antibody, V domains shown)", "VH": "EVKLVESGPGLVKPSQSLSLTCTVTGYSITSDYAWNWIRQFPGNKLEWMGYISYNTYTSYNPSLKSRISVTRDTSKNQFFLQLKSVTIEDTATYFCAGGDYYGTGAVDYWGQGTTVTVSS", "VL": "EIVLTQSPLSLPVSLGDQASISCRSRQTLVHTNGNTYLDWYLQKPGQSPKLLIYKVSIRFSGVPDRFSGSRSGTDFTLKISRVEAEDLGIYYCFQGSHVPWTFGGGTKLEIK", "notes": "murine hybridoma mAb"}, "B10": {"name": "14A10C5 (antibody, V domains shown)", "VH": "EVKLVESGPGILQPSQTLSLTCSFSGFSLSTSGMGVSWIRQPSGKGLEWLAHIYWDDEKRYNPSLKSRLTISKDTSSNQVFLKITSVDTADTATYYCAREGSANWEAMDYWGQGTTVTVSS", "VL": "B3 VL with Q3V, S7A, P8A, H31Y, N35I, V45P, G73A, G96S, Y101W", "notes": "murine hybridoma mAb; also called 14A10CS"}, "B11": {"name": "10D2 (antibody, V domains shown)", "VH": "EVQLQQSGPELKKPGETVKISCKASGYTFTDYSMHWVKQAPGKGLKWMGWINTETGQPTYADDFKGRFAFSLETSASSAYLQINNLKNEDTATYFCTRTFYYDYVGDYWGQGTTVTVSS", "VL": "DIVMTQSHKFMSTSVGDRVSITCKASQDVSTAVAWYRQKPGQSPKLLIYWASTRHTGVPDRLTGSGSGTDFALTINSVQAEDLALYYCQQHSSTPYTFGGGTKLEIK", "notes": "murine hybridoma mAb"}}, "assay_in_all_cases": "SPR (Caterra or Biacore), antigen immobilized", "key": {"[1]": {"molecular_target": "T1, HuCDCP1-A (human, UniProt Q9H5V8 30-430)", "T1 construct": "range 30-430; expressed in HEK-293T, purified by Fc/his tag; also called human CDCP1-A; membrane-distal region of CDCP1; not shown: Fc or his tag", "T1 sequence (looked up)": "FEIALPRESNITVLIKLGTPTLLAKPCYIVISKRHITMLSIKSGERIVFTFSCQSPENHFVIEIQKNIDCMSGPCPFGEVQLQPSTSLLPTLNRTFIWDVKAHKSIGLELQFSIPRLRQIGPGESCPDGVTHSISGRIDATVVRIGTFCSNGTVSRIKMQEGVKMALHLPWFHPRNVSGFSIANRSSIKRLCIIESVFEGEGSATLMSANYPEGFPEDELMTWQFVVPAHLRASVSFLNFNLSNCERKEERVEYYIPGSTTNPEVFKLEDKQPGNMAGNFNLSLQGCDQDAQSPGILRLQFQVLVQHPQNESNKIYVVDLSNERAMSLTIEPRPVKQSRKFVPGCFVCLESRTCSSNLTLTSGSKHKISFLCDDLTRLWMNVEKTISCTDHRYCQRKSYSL"}, "[2]": {"molecular_target": "T2, MsCDCP1 (mouse, UniProt Q5U462 30-666)", "T2 construct": "extracellular domain; also called mouse CDCP1; not shown: Fc or his tag", "T2 sequence (looked up)": "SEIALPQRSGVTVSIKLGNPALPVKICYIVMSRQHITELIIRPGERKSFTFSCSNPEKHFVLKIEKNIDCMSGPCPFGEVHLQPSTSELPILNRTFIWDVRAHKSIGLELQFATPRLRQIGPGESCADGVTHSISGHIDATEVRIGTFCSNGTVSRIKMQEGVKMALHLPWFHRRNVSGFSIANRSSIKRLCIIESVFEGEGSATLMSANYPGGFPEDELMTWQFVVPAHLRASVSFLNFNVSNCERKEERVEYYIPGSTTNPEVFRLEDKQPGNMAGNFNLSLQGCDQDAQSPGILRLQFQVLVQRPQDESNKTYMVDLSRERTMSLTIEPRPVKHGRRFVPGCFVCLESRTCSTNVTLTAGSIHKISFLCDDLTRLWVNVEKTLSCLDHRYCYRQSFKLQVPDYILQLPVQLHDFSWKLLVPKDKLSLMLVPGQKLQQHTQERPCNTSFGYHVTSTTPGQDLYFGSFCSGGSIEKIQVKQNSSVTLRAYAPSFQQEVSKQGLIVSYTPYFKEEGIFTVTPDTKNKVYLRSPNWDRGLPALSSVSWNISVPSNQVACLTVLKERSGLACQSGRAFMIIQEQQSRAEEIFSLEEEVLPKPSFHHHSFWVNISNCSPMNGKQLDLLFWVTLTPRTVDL"}, "[3]": {"molecular_target": "T3, RatCDCP1 (rat, UniProt D3ZVA1 29-666)", "T3 construct": "extracellular domain; not shown: Fc or his tag", "T3 sequence": "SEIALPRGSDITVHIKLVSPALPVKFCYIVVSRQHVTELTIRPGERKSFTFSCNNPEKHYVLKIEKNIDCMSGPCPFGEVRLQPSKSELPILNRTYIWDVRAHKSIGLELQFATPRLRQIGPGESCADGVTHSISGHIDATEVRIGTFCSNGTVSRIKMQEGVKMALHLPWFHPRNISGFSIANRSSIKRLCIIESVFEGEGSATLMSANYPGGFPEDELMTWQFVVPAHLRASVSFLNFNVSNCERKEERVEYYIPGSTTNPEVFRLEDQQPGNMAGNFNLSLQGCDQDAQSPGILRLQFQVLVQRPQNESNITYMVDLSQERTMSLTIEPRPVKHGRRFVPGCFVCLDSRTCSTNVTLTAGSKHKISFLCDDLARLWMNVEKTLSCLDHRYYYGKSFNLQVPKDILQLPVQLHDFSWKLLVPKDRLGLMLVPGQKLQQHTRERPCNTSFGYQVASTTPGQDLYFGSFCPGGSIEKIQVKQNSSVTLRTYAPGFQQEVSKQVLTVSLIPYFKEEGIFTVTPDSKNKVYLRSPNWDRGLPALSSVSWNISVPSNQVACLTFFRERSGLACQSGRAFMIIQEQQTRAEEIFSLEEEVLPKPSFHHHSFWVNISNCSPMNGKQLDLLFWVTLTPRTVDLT"}}, "note": "Residue numbers refer to the chain shown, from its start."}
{"binder": "B1", "values": [{"measurement": "EC50", "setting": "[1]", "value": 1.67, "unit": "nM"}, {"measurement": "EC50", "setting": "[2]", "value": 4010, "unit": "nM"}, {"measurement": "binding result", "setting": "[3]", "value": "no binding (tested: 150 nM highest concentration)"}]}
{"binder": "B2", "values": [{"measurement": "EC50", "setting": "[1]", "value": 79.3, "unit": "nM"}, {"measurement": "binding result", "setting": "[2]", "value": "no binding (tested: 150 nM highest concentration)"}, {"measurement": "EC50", "setting": "[3]", "value": 50.5, "unit": "nM"}]}
{"binder": "B3", "values": [{"measurement": "binding result", "setting": "[1]", "value": "no binding (tested: 150 nM highest concentration)"}, {"measurement": "binding result", "setting": "[2]", "value": "no binding (tested: 150 nM highest concentration)"}, {"measurement": "binding result", "setting": "[3]", "value": "no binding (tested: 150 nM highest concentration)"}]}
{"binder": "B4", "values": [{"measurement": "binding result", "setting": "[1]", "value": "no binding (tested: 150 nM highest concentration)"}, {"measurement": "binding result", "setting": "[2]", "value": "no binding (tested: 150 nM highest concentration)"}, {"measurement": "binding result", "setting": "[3]", "value": "no binding (tested: 150 nM highest concentration)"}]}
{"binder": "B5", "values": [{"measurement": "binding result", "setting": "[1]", "value": "no binding (tested: 150 nM highest concentration)"}, {"measurement": "EC50", "setting": "[2]", "value": 27.5, "unit": "nM"}, {"measurement": "EC50", "setting": "[3]", "value": 91.4, "unit": "nM"}]}
{"binder": "B6", "values": [{"measurement": "EC50", "setting": "[1]", "value": 52.3, "unit": "nM"}, {"measurement": "binding result", "setting": "[2]", "value": "no binding (tested: 150 nM highest concentration)"}, {"measurement": "binding result", "setting": "[3]", "value": "no binding (tested: 150 nM highest concentration)"}]}
{"binder": "B7", "values": [{"measurement": "binding result", "setting": "[1]", "value": "no binding (tested: 150 nM highest concentration)"}, {"measurement": "binding result", "setting": "[2]", "value": "no binding (tested: 150 nM highest concentration)"}, {"measurement": "EC50", "setting": "[3]", "value": 18, "unit": "nM"}]}
{"binder": "B8", "values": [{"measurement": "binding result", "setting": "[1]", "value": "no binding (tested: 150 nM highest concentration)"}, {"measurement": "binding result", "setting": "[2]", "value": "no binding (tested: 150 nM highest concentration)"}, {"measurement": "EC50", "setting": "[3]", "value": 30.5, "unit": "nM"}]}
{"binder": "B9", "values": [{"measurement": "EC50", "setting": "[1]", "value": 127, "unit": "nM"}, {"measurement": "binding result", "setting": "[2]", "value": "no binding (tested: 150 nM highest concentration)"}, {"measurement": "EC50", "setting": "[3]", "value": 17, "unit": "nM"}]}
{"binder": "B10", "values": [{"measurement": "binding result", "setting": "[1]", "value": "no binding (tested: 150 nM highest concentration)"}, {"measurement": "binding result", "setting": "[2]", "value": "no binding (tested: 150 nM highest concentration)"}, {"measurement": "binding result", "setting": "[3]", "value": "no binding (tested: 150 nM highest concentration)"}]}
{"binder": "B11", "values": [{"measurement": "EC50", "setting": "[1]", "value": 0.747, "unit": "nM"}, {"measurement": "binding result", "setting": "[2]", "value": "no binding (tested: 150 nM highest concentration)"}, {"measurement": "EC50", "setting": "[3]", "value": 41.1, "unit": "nM"}]}
